Reference: US20230241113A1 (IMMATICS BIOTECHNOLOGIES, published 2023)

B1: altORF-006 (peptide)
peptide: ILQSLVPAA
notes: also called ILQSLVPAA
B2: CIZ1-001 (peptide)
peptide: SLGPPPVGV
notes: also called SLGPPPVGV
B3: AHNAK2-003 (peptide)
peptide: KLPEGHLPEV
notes: also called KLPEGHLPEV
B4: HERVK-002 (peptide)
peptide: STTIINLIL
notes: From a human endogenous retrovirus; also called STTIINLIL
B5: KRT18-001 (peptide)
peptide: KIIEDLANTV
notes: also called KIIEDLANTV
B6: CDC2-006 (peptide)
peptide: GLIDDKGTIKL
notes: also called GLIDDKGTIKL
B7: altORF-069 (peptide)
peptide: WLMPVMPAL
notes: also called WLMPVMPAL
B8: HERVK-003 (peptide)
peptide: TLLSYSIPL
notes: From a human endogenous retrovirus; also called TLLSYSIPL
B9: altORF-068 (peptide)
peptide: LLLQIEPAA
notes: also called LLLQIEPAA
B10: BSG-001 (peptide)
peptide: ALMDGSESRFFV
notes: also called ALMDGSESRFFV
B11: altORF-007 (peptide)
peptide: FLQEGDLISV
notes: also called FLQEGDLISV
B12: LARS-001 (peptide)
peptide: SLMEVTHDL
notes: also called SLMEVTHDL

target: T1, HLA-A*02:01 (human); experiment: UV-ligand exchange + anti-β2m ELISA; exchange yield grade: ≥10% +, ≥20% ++, ≥50 +++, ≥75% ++++
T1 construct: captured on streptavidin plates, detected with anti-β2m; also called peptide-receptive MHC molecules; MHC class I
Protocol: The individual peptide-MHC complexes were produced by UV-ligand exchange, where a UV-sensitive peptide is cleaved upon UV-irradiation and exchanged with the peptide of interest as analyzed. Only peptide candidates that can effectively bind and stabilize the peptide-receptive MHC molecules prevent dissociation of the MHC complexes. To determine the yield of the exchange reaction, an ELISA was performed based on the detection of the light chain (β2m) of stabilized MHC complexes. The assay was performed as generally described in Rodenko et al. (Rodenko et al., 2006).
96 well MAXISorp plates (NUNC) were coated over night with 2 μg/ml streptavidin in PBS at room temperature, washed 4× and blocked for 1 h at 37° C. in 2% BSA containing blocking buffer. Refolded HLA-A*02:01/MLA-001 monomers served as standards, covering the range of 15-500 ng/ml. Peptide-MHC monomers of the UV-exchange reaction were diluted 100 fold in blocking buffer. Samples were incubated for 1 h at 37° C., washed four times, incubated with 2 μg/ml HRP conjugated anti-β2m for 1 h at 37° C., washed again and detected with TMB solution that is stopped with […]. Absorption was measured at 450 nm. Candidate peptides that show a high exchange yield (preferably higher than 50%, most preferred higher than 75%) are generally preferred for a generation and production of antibodies or fragments thereof, and/or T cell receptors or fragments thereof, as they show sufficient avidity to the MHC molecules and prevent dissociation of the MHC complexes.

Row | Binder | peptide exchange yield [%]
1 | B1 | ≥ 75
2 | B2 | ≥ 75
3 | B3 | ≥ 75
4 | B4 | 20 to 50
5 | B5 | ≥ 75
6 | B6 | ≥ 75
7 | B7 | ≥ 75
8 | B8 | ≥ 75
9 | B9 | ≥ 75
10 | B10 | ≥ 75
11 | B11 | ≥ 75
12 | B12 | ≥ 75
